Test results: paper PMC5180209 (Structure (London, England : 1993), 2016)
One block for each binder: values may come before it. Square brackets hold non-standard residues; d marks the D form. Ends that are not written are not given here. pS = N[C@@H](COP(=O)(O)O)C(=O)O

Target: B56γ 31–380 (PP2A regulatory subunit B56) (UniProt Q13362 31-380)
Test: ITC

- fold increase of affinity as salt is reduced from 300 mM to 150 mM: ~3.6 fold
B1: BubR1 peptide 668-KLpSPIIEDE-676 (peptide)
peptide: KL[pS]PIIEDE

- fold weaker affinity than KLpSPIIEDE: 2.4 fold
B2: BubR1 peptide 668-KLEPIIEDE-676 (peptide)
peptide: KLEPIIEDE

- Kd: 2000 nM
B3: pSpS-BubR1 peptide, 668-KL-pS-PIIED-pS-676 (dually-phosphorylated BubR1) (peptide)
peptide: KL[pS]PIIED[pS]

- Kd: 100 nM
B4: pS-RepoMan peptide, 581-RDIASKKPLL-pS-PIPELPEVPE-601 (mono-phosphorylated RepoMan) (peptide)
peptide: RDIASKKPLL[pS]PIPELPEVPE

- Kd: 600 nM
B5: pS-BubR1 peptide, 663-TLSIKKL-pS-PIIEDDREADH-681 (mono-phosphorylated BubR1) (peptide)
peptide: TLSIKKL[pS]PIIEDDREADH

- fold weaker binding than the peptide with residue 676: ~1.7 fold
B6: BubR1 peptide 668-KLpSPIIED-675 (peptide)
peptide: KL[pS]PIIED
